Source: US20210253725A1 (BIONTECH, published 2021)
Positions count from the first letter of the chain named. Numbers in names are those of the source.

T1: CD134 expressed on the cell surface of HT1080_OX40 cells (human, UniProt P43489 29-277)
T1 sequence (looked up): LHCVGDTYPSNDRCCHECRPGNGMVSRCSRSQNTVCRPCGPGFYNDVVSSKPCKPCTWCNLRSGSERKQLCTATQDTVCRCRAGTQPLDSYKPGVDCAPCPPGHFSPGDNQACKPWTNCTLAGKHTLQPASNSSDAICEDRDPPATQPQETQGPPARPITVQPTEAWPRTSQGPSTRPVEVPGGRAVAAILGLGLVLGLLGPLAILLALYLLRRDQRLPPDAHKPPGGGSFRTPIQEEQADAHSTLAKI

T2: CD134 protein (His-tagged, Sino Biological Inc. 10481-H08H) (human, UniProt P43489 29-216)
T2 construct: bought protein coated on ELISA plates; also called OX40; TNFRSF4; not shown: His tag
T2 sequence (looked up): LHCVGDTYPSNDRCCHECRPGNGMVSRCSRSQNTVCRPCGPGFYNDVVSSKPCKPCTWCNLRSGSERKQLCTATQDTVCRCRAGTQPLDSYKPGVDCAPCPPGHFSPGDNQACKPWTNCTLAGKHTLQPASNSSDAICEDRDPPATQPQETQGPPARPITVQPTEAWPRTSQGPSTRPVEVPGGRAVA

B1: P018.S.04.A.F05 (antibody, V domains shown)
VH: QSVEESGGRLVTPGTPLTLTCTVSGIDLSSYTMGWVRQAPGKGLEYIGIIGTSGTTYYSSWAKGRFTISKTSTTVDLKITSPTTEDTATYFCARLGDDYGDFHFNLWGQGTLVTVSS
VL: DLVMTQTPASVSEPVGGTVTIKCQASQNIGNYLAWYQQKPGQPPKLLIYAASNLASGVSSRFKGSGSGTEYTLTISDLESADAATYYCQCTYYDSTYFAFGGGTEVVVK
notes: V regions on human Ig constant parts; also called AB134_12
B2: P018.S.05.A.G05 (antibody, V domains shown)
VH: QSVEESGGRLVTPGTPLTLTCTVSGIDLSNHGMGWFRQGPGKGLEWIGIIYIDGGASYASWVNGRFTISKTSTTVDLKITSPTTEDTATYFCARGIPSDGDSSYYYFNLWGQGTLVTVAS
VL: DVVMTQTPASVEAAVGGTVTIKCQASQSVYNKYLSWFQQKPGQPPKLLIYRASTLESGVSSRFKGSGSGTEFTLTISDLESADAATYYCQNNNGAGDNTDYTFGGGTEVVVK
notes: V regions on human Ig constant parts; also called AB134_18
B3: P018.S.04.A.B06 (antibody, V domains shown)
VH: QSVEESGGRLVTPGTFLTLTCTVSGFSLSSYAMNWVRQSPGKGLEWIGIIYSDDIAYYASWAKGRFTISKTSTTVTLKMTSLTVADTATYFCARGDGDRSIWSFDLWGPGTLVTVSS
VL: AQVLTQTPSPVSAAVGGTVTISCQSSESVWNNNWLAWYQQKPGQPPNLLIYEASTLASGVSSRFKGSGSGTQFTLTVSEVQSDDAATYYCQGGYYDSSPIWTFGGGTEVVVK
notes: V regions on human Ig constant parts; also called AB134_7
B4: P018.S.04.A.E06 (antibody, V domains shown)
VH: QSVEESGGRLVTPGTPLTLTCTVSGFSLSGYDMSWVRQAPGKGLEWIGYIYAGSTYYANWAKGRFTISKTSTTVDLKMTSPTTEDTATYFCTRVGAGYSGVWAYFNLWGPGTLVTVSS
VL: AQVLTQTPSSVSAAVGGTVTINCQSSQSVDSDNYLAWYQQKPGQPPKLLIYDASKLASGVPSRFTGSGSGTQFTLTISGVQSDDAATYYCQGTYGNIGWYFAFGGGTEVVVK
notes: V regions on human Ig constant parts; also called AB134_11
B5: P018.S.04.A.D06 (antibody, V domains shown)
VH: QSLEESGGDLVKPGASLTLTCTASGFSFSSSYYMCWVRQAPGKGLEWIACIYTGDGASYYASWAKGRFTISKPSSTTVTLQVTSLTAADTATYFCGRGEYDNDWGFGLWGPGTLVTVSS
VL: AYDMTQTPASVEVPVGGTVTINCQASEDISSYLSWYQQKPGQPPELLIYYASNLASGVSSRFKGSRSGTEFTLTISDLESADAATYYCQCSNYGGSWTFGGGTEVVVK
notes: V regions on human Ig constant parts; also called AB134_9
B6: P018.S.03.A.E03 (antibody, V domains shown)
VH: QSVEESGGRLVTPGTPLTLTCTVSGFSLSTYGMSWVRQAPGKGLEWIGIIDAGDSPYYASWVKGRFTISKTSTTVDLKITSLTTEDTATYFCARIAGSNHGPFSLWGPGTLVTVSS
VL: DVVMTQTPASVSEPVGGTVTINCQASEFISNYLAWYQQKPGQPPKLLIYGASTLASGVPSRFSGSGSGTQFTLTISDLESDDAATYYCQCTAYGSGYVGFGGGTEVVVK
notes: V regions on human Ig constant parts; also called AB134_4
B7: P018.S.12.A.G05 (antibody, V domains shown)
VH: B6 VH with A52G, V62A, K63E, L82P, S104D
VL: B6 VL with S63K, Q70D, D81A, G96S
notes: V regions on human Ig constant parts; also called AB134_87
B8: P018.S.04.A.H05 (antibody, V domains shown)
VH: QSVEESGGRLVTPGTPLTLTCTVSGFSLSSYAMGWVRQAPGKGLEWIGWINTAGGTDYTSWAKGRFTISKTSTTVDLKVTSLTTEDTATYFCARYDYYYFDLWGQGTLVTVSS
VL: AQVLTQTASSVSAAVGGTVTISCQSSQSVYDNNWLAWYQQKPGQPPKLLIYSASTLASGVPSRFKGSGSGTEFTLTISDLESDDAAAYYCHGVYSGSIHAFGGGTEVVVI
notes: V regions on human Ig constant parts; also called AB134_15
B9: P018.S.11.A.A05 (antibody, V domains shown)
VH: QSVEESGGRLVTPGTPLTLTCTVSGFSLNSYDMSWVRQAPGKGLEWIGFISASGSIYFANWAKGRFTISKTSTTVDLKITSPTTEDTATYFCASDSYGWAYVYYFNLWGPGTLVTVSS
VL: AVVLTQTPASVSAAVGGTVTINCRASEDIGSYLGWYQQKPGQPPKLLMHDASDLASGVPSRFSGSGSGTEFTLTISGVQSDDAATYYCQSAWYSSGTDKMAFGGGTEVVVK
notes: V regions on human Ig constant parts; also called AB134_22
B10: P018.S.12.A.E04 (antibody, V domains shown)
VH: B9 VH
VL: B9 VL with I29V, K39R, P40A, Y93L, S94G, S95T, G96N
notes: V regions on human Ig constant parts; also called AB134_75
B11: P018.S.04.A.G05 (antibody, V domains shown)
VH: QSVEESGGRLVTPGTPLTLTCTVSGFSLSTYYMSWVRQAPGKSLEWIGCIHGDDGSTWYASWVQGRFTISKASTTVDLQIASPTTEDTATYFCARGLPYWPNDGDFNLWGQGTLVTVSS
VL: TQVLTQTPSPVSAAVGGTVSISCQSSQSVYNNNWLSWFQQKPGQPPKLLVYGASTLASGVPSRFKGSGSGTQFTLTISDLESDDAATYYCAGGYYTTSDNGFGGGTEVVVK
notes: V regions on human Ig constant parts; also called AB134_14

molecular target: T1, CD134 expressed on the cell surface of …; test: cell-based or functional assay
Throughout, for Functional assay Cross-linked by F(ab′)2 fragment IL-8: test concentration or dose not given here.
Throughout, for Functional assay IL-8: test concentration or dose not given here.

Point of comparison: B5, “Functional assay Cross-linked by F(ab′)2 fragment IL-8” value 2.3 abs. corr.. Against it:
- B1 — higher, 2.4 abs. corr.
- B2 — higher, 2.39 abs. corr.
- B3 — lower, 2.27 abs. corr.
- B4 — higher, 2.38 abs. corr.
- B6 — higher, 2.54 abs. corr.
- B7 — lower, 2.19 abs. corr.
- B8 — higher, 2.39 abs. corr.
- B9 — lower, 2.15 abs. corr.
- B10 — lower, 2.23 abs. corr.
- B11 — higher, 2.41 abs. corr.

Point of comparison: B8, “Functional assay IL-8” value 0.356 abs. corr.. Against it:
- B1 — lower, 0.181 abs. corr.
- B2 — higher, 2.62 abs. corr.
- B3 — higher, 1.82 abs. corr.
- B4 — lower, 0.135 abs. corr.
- B5 — higher, 1.01 abs. corr.
- B6 — lower, 0.314 abs. corr.
- B7 — lower, 0.13 abs. corr.
- B9 — lower, 0.26 abs. corr.
- B10 — higher, 0.455 abs. corr.
- B11 — lower, -0.022 abs. corr.

molecular target: T1, CD134 expressed on the cell surface of …; test: HT1080_OX40 cells, imaging; note: test concentration or dose not given here

Point of comparison: B6, “Cellular binding assay [RFU]” value 419 RFU. Against it:
- B1 — lower, 368 RFU
- B2 — higher, 463 RFU
- B3 — higher, 482 RFU
- B4 — lower, 140 RFU
- B5 — higher, 510 RFU
- B7 — higher, 570 RFU
- B8 — higher, 451 RFU
- B9 — higher, 550 RFU
- B10 — higher, 659 RFU
- B11 — higher, 451 RFU

molecular target: T2, CD134 protein (His-tagged, Sino …); test: ELISA, coated His-tagged CD134; note: test concentration or dose not given here

Point of comparison: B9, “ELISA [abs. corr.]” value 1.9 abs. corr.. Against it:
- B1 — higher, 2.44 abs. corr.
- B2 — higher, 2.62 abs. corr.
- B3 — higher, 2.64 abs. corr.
- B4 — lower, 0.206 abs. corr.
- B5 — higher, 2.49 abs. corr.
- B6 — higher, 2.72 abs. corr.
- B7 — higher, 2.04 abs. corr.
- B8 — higher, 2.97 abs. corr.
- B10 — higher, 2.21 abs. corr.
- B11 — higher, 2.87 abs. corr.

molecular target: T1, CD134 expressed on the cell surface of …; test: cell-based or functional assay; remark: another data set of the same source

Point of comparison: B11, “EC 50 (IL-8 release, cross-linked)” value 0.669 µg/mL. Against it:
- B1 — 3-fold lower, 0.225 µg/mL
- B2 — within 1.5-fold, 0.975 µg/mL
- B3 — within 1.5-fold, 0.461 µg/mL
- B4 — 2.1-fold higher, 1.39 µg/mL
- B5 — 1.9-fold lower, 0.355 µg/mL
- B6 — within 1.5-fold, 0.529 µg/mL
- B7 — within 1.5-fold, 0.745 µg/mL
- B8 — 1.7-fold higher, 1.17 µg/mL
- B9 — within 1.5-fold, 0.865 µg/mL
- B10 — 1.5-fold higher, 1.01 µg/mL
